# Literature values as cited in article PMC4004251.
# What was measured:
# Details in all cases: folded GB1 (the article states the structure is stable above pH 3)
# Glu42 = Glu42 (UniProt position 268, NGVDGEWTYDD)
# Glu27 = Glu27 (UniProt position 253, DAATAEKVFKQ)
# Glu15 = Glu15 (UniProt position 241, KTLKGETTTEA)
substance,measurement,setting,value
"Immunoglobulin G-binding protein G, B1 domain (GB1) (Streptococcus sp. group G)",pKa,Glu42,about 4.5
same,pKa,Glu27,about 4.5
same,pKa,Glu15,near 4.5
